The values below come from paper PMC6294498, “The structural basis of CstF-77 modulation of cleavage and polyadenylation through stimulation of CstF-64 activity”.

Data set [1] addresses T1, CstF-64 RRM-Hinge;CstF-77 MT (MT-CTD lacking last 30 aa) (Homo sapiens;Homo sapiens, UniProt P33240;Q12996 1-195;607-687, |del688-717).
T1 sequence 1: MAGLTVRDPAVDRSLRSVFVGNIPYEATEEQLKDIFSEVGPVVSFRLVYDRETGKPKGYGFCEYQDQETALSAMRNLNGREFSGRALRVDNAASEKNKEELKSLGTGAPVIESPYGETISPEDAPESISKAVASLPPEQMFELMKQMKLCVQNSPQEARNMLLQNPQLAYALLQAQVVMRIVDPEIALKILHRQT
T1 sequence 2: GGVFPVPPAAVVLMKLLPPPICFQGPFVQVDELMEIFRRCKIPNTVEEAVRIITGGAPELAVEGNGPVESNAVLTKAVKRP
As to the kind of experiment: NMR (1H-15N HSQC titration); 10 mM phosphate pH 6.0, 2 mM TCEP, 30 C; 15N-labeled protein titrated with unlabeled RNA. As to conditions: protein: recombinant;recombinant, tags: His6-TEV, removed by TEV;MBP-TEV, copies: 1;1, label: none, single strand.

The target of a further data set is T2, CstF-64 RRM (Homo sapiens, UniProt P33240 1-107).
T2 sequence: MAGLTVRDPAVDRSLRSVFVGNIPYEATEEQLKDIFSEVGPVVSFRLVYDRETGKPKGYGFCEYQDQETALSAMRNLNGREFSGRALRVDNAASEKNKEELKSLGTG
The data set is described as above. Particulars: protein: recombinant; tags: His6-TEV, removed by TEV; label: none; single strand.

Data set [2] addresses T3, CstF-64 RRM-Hinge;CstF-77 MT-CTD (Homo sapiens;Homo sapiens, UniProt P33240;Q12996 1-195;607-717, |).
T3 sequence 1: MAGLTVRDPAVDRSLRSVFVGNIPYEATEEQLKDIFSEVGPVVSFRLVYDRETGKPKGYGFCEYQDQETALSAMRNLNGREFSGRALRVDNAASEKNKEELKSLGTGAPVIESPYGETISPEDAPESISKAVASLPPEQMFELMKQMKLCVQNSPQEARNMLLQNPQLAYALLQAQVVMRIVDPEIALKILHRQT
T3 sequence 2: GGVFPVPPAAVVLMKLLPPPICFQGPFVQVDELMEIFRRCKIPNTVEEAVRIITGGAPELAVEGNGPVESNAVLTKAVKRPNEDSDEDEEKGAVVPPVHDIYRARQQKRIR
As to the kind of experiment: NMR (1H-15N HSQC titration); smaller CSPs; last 30 aa of CstF-77 show no significant CSP; 10 mM phosphate pH 6.0, 2 mM TCEP, 30 C; 15N-labeled protein titrated with unlabeled RNA. Particulars: protein: recombinant;recombinant, tags: His6-TEV, removed by TEV;MBP-TEV, copies: 1;1, label: none, single strand.

For the molecule AUUUUAUGUUUCAGGU (ssRNA) [SVL RNA], the values for the Kd (in data set [1]; in the data set with CstF-64 RRM; in data set [2]) were 3.5 ± 1 µM, 0.7 ± 0.4 µM and 3.3 ± 2.3 µM, respectively.
